Consider four molecules from patent US7067268.

No end group written: not given here.

For assay [1], the target named is P2L-2Ca. The assay is described as follows: competitive EIA: unlabeled antigen varied against HRP-labeled 19P2 ligand (17-31) on P2L-2C.
The target of assay [2] is P2L-1Ta. The assay can be described thus: competitive EIA: unlabeled antigen varied against HRP-labeled 19P2 ligand (12-25) on P2L-1Ta.
The target of assay [3] is P2L-2Ca. The assay is described as follows: competitive EIA on P2L-2C; ratio of the antigen concentrations giving (B/B0)=0.5.
Assay [4] concerns the target P2L-3Ta. The assay is described as follows: competitive EIA: unlabeled antigen varied against HRP-labeled 19P2 ligand (12-25) on P2L-3Ta.
Assay [5] deals with these antibodies (P2L-1Ta, P2L-3Ta, P2L-2Ta and P2L-4Ta). The assay can be described thus: competitive EIA against HRP-labeled 19P2 ligand (12-25); P2L-1Ta, P2L-3Ta, P2L-2Ta, P2L-4Ta (FIG. 9).
The target in assay [6] is P2L-1Ca. The assay is described as follows: competitive EIA: unlabeled antigen varied against HRP-labeled 19P2 ligand (17-31) on P2L-1C.
The target in assay [7] is P2L-3Ta. The assay can be described thus: competitive EIA against HRP-labeled 19P2 ligand (12-25); 'higher' as printed, though 25 nM against 4 nM points to lower.
Assay [8] deals with P2L-1Ta. The assay can be described thus: competitive EIA on P2L-1Ta; FIG. 7(a).
Assay [9] deals with P2L-3Ta. The assay is described as follows: competitive EIA against HRP-labeled 19P2 ligand (12-25); sentence prints 'P2L-1Ta' but stands in the P2L-3Ta passage and cites FIG. 7(b).

As to SRAHQHSMEIRTPDINPAWYAGRGIRPVGRF-NH2 [Bovine 19P2 ligand (1-31)], the IC50 in assay [1] is 50 nM.
For SRTHRHSMEIRTPDINPAWYASRGIRPVGRX (C-terminal amide) [Human 19P2 ligand (1-31)], the half-maximal inhibitory concentration (IC50) in assay [2] was 4 nM; in assay [4] it was 4 nM; in [1], 1.5 nM; in [5], 3 to 50 nM; in assay [6], 3 nM. This molecule yielded an antigen concentration detected, (B/B0)=0.9 in [2] of 0.1 nM. In assay [3], the fold of the reactivity against bovine 19P2 ligand (1-31) is 33 fold. Besides, the fold of the reactivity against rat 19P2 ligand (1-31) in [3] was found to be 130 fold.
In the case of SRAHQHSMETRTPDINPAWYTGRGIRPVGRF-NH2 [Rat 19P2 ligand (1-31)], the IC50 in assay [2] is 1 nM; in assay [1], 200 nM; in assay [9], 25 nM. Also, the figures for the fold of the reactivity against human 19P2 ligand (1-31) in assay [7] and in assay [8] were 6 fold and 4 fold, respectively.
Regarding TPDINPAWYASRGIRPVGRF-NH2 [Human 19P2 ligand (12-31)], the 50% inhibitory concentration (IC50) in assay [2] was found to be 4 nM. Besides, in [9], the IC50 was 7 nM and the fold of the reactivity against human 19P2 ligand (1-31) was determined as 0.5 fold.
